From PMC9096947 come the findings set out here.

Values joined by “and” are separate entries in the source; they are usually repeats but may differ in a detail not shown here. Equal values may be shown once.

The test system of the data set is CodY (Streptococcus agalactiae (Group B Streptococcus) BM110). Briefly: EMSA. Particulars: EMSA as in Barbieri et al. 2015 (buffer, salt, pH, temperature not given); 50 nM FAM probe; 5% non-denaturing Tris-glycine polyacrylamide gel; 10 mM each ILV ….

Take livKp220 (livK regulatory region, WT): the Kd is 50 nM and 150 nM.
